# Experimental data as given in US11312781B2, “Antigen binding molecules that bind LIGHT” (Capella Bioscience Ltd., priority 2018, dated 2022).
# Target: T1, LIGHT protein (Homo sapiens, UniProt O43557, K214E)
# T1 construct: amino acids 74-240 LIGHT (R&D Systems, 664-LI-025); purchased R&D Systems 664-LI-025
# Assay: Hydrogen-deuterium exchange (HDX) mass spectrometry epitope mapping
# Assay type: binding
# Design: Difference uptake (3B04-control) / Uptake 3B04: unit not given here
# Settings: for Uptake 3B04: average deuterium uptake n = 3
# Experimental: The LIGHT protein (R&D Systems 664-LI-025) was solubilised in PBS buffer at a final concentration of 8 μM, whereas the antibodies were maintained at 20 μM in PBS. For complex formation the LIGHT protein was incubated with each antibody separately in 1:5 ratio on ice and HDX measurements were performed 30 min after incubation. All data were recorded on a waters Synapt G2Si equipped with a HDX platform. […] […] Subsequently each sample was quenched with 50 μL of 2M guanidinium chloride in at pH 2. The samples were passed through a pepsin column for 5 min to digest the protein and peptides were separated using a reverse phase chromatography. Data were analysed with DynamX software. Peptides were selected with a maximum length of 15 amino acids and a 5 ppm mass accuracy error. […] The analysis was repeated 3 times for each mAb.
# HDX was used as a starting point to identify the epitope of antibody 3B04 binding to the LIGHT protein. A sequence coverage of 69.2% of the LIGHT protein was achieved and the regions that were not observed were due to the presence of a […] and glycosylation. The glycans were not removed from LIGHT in order to preserve the structure of the protein in a native state. […] (Difference in uptake between 3B04 and control mAb, Table 16, values in bold). […] The results from HDX spectrometry were used as a guide to identify a region of interest that was subsequently analysed using alanine scanning.
# [1] = LIGHT peptide 194-202 SRVWWDSSF, Exposure (sec) 0.33
# [2] = LIGHT peptide 194-202 SRVWWDSSF, Exposure (sec) 1.00
# [3] = LIGHT peptide 194-202 SRVWWDSSF, Exposure (sec) 5.00
# [4] = LIGHT peptide 194-202 SRVWWDSSF, Exposure (sec) 30.00
# [5] = LIGHT peptide 195-202 RVWWDSSF, Exposure (sec) 0.33
# [6] = LIGHT peptide 195-202 RVWWDSSF, Exposure (sec) 1.00
# [7] = LIGHT peptide 195-202 RVWWDSSF, Exposure (sec) 5.00
# [8] = LIGHT peptide 195-202 RVWWDSSF, Exposure (sec) 30.00
# [9] = LIGHT peptide 197-202 WWDSSF, Exposure (sec) 0.33
# [10] = LIGHT peptide 197-202 WWDSSF, Exposure (sec) 1.00
# [11] = LIGHT peptide 197-202 WWDSSF, Exposure (sec) 5.00
# [12] = LIGHT peptide 197-202 WWDSSF, Exposure (sec) 30.00
# [13] = LIGHT peptide 203-209 LGGVVHL, Exposure (sec) 0.33
# [14] = LIGHT peptide 203-209 LGGVVHL, Exposure (sec) 1.00
# [15] = LIGHT peptide 203-209 LGGVVHL, Exposure (sec) 5.00
# [16] = LIGHT peptide 203-209 LGGVVHL, Exposure (sec) 30.00
# [17] = LIGHT peptide 203-214 LGGVVHLEAGEE, Exposure (sec) 0.33
# [18] = LIGHT peptide 203-214 LGGVVHLEAGEE, Exposure (sec) 1.00
# [19] = LIGHT peptide 203-214 LGGVVHLEAGEE, Exposure (sec) 5.00
# [20] = LIGHT peptide 203-214 LGGVVHLEAGEE, Exposure (sec) 30.00
# T1 sequence (O43557 74-240 K214E): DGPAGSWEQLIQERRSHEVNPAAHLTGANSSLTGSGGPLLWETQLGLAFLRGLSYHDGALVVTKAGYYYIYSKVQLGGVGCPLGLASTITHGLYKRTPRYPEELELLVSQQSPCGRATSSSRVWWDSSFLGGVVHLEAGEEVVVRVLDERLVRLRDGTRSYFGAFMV
molecule,measurement,setting,value
"3B04: parental mouse anti-membrane LIGHT antibody, VL SEQ ID NO 1, VH SEQ ID NO 5; tested as chimeric human IgG4 mAb (antibody, listed as Homo sapiens, V domains shown) VH: QVQLQQPGAELVRPGASVTLSCKASGYTFTDYEMHWVKQTPVHGLEWIGEIDPETGDTAYSQKFKGKATLTADKSSSTAYMEFRSLTSEDSAVYYCSRETDYFFDYWGQGTTLTVSS VL: DIQMTQTPASLSASVGETVTITCGASENIYGALNWYQRKQGKSPQLLIYGATNLADGMSSRFSGSGSGRQYSLKISSLHPDDFATYYCQNVLTTPWTFGGGTKLEIKR",Difference uptake (3B04-control),[1],−0.296
same,Uptake 3B04,[1],0.744
same,Difference uptake (3B04-control),[2],−0.443
same,Uptake 3B04,[2],0.885
same,Difference uptake (3B04-control),[3],−0.405
same,Uptake 3B04,[3],1.159
same,Difference uptake (3B04-control),[4],−0.656
same,Uptake 3B04,[4],1.392
same,Difference uptake (3B04-control),[5],−0.254
same,Uptake 3B04,[5],0.393
same,Difference uptake (3B04-control),[6],−0.399
same,Uptake 3B04,[6],0.480
same,Difference uptake (3B04-control),[7],−0.474
same,Uptake 3B04,[7],0.631
same,Difference uptake (3B04-control),[8],−0.756
same,Uptake 3B04,[8],0.805
same,Difference uptake (3B04-control),[9],−0.187
same,Uptake 3B04,[9],0.240
same,Difference uptake (3B04-control),[10],−0.269
same,Uptake 3B04,[10],0.336
same,Difference uptake (3B04-control),[11],−0.217
same,Uptake 3B04,[11],0.501
same,Difference uptake (3B04-control),[12],−0.252
same,Uptake 3B04,[12],0.603
same,Difference uptake (3B04-control),[13],−0.029
same,Uptake 3B04,[13],0.145
same,Difference uptake (3B04-control),[14],−0.027
same,Uptake 3B04,[14],0.147
same,Difference uptake (3B04-control),[15],−0.014
same,Uptake 3B04,[15],0.237
same,Difference uptake (3B04-control),[16],−0.052
same,Uptake 3B04,[16],0.384
same,Difference uptake (3B04-control),[17],−0.050
same,Uptake 3B04,[17],0.202
same,Difference uptake (3B04-control),[18],−0.033
same,Uptake 3B04,[18],0.266
same,Difference uptake (3B04-control),[19],−0.087
same,Uptake 3B04,[19],0.399
same,Difference uptake (3B04-control),[20],−0.081
same,Uptake 3B04,[20],0.807
same,Epitope defined by HDX,soluble LIGHT,residues 195-197 of soluble LIGHT
